Molecular target: T1, plcg1_human PLCG1 (UniProt P19174)
T1 sequence: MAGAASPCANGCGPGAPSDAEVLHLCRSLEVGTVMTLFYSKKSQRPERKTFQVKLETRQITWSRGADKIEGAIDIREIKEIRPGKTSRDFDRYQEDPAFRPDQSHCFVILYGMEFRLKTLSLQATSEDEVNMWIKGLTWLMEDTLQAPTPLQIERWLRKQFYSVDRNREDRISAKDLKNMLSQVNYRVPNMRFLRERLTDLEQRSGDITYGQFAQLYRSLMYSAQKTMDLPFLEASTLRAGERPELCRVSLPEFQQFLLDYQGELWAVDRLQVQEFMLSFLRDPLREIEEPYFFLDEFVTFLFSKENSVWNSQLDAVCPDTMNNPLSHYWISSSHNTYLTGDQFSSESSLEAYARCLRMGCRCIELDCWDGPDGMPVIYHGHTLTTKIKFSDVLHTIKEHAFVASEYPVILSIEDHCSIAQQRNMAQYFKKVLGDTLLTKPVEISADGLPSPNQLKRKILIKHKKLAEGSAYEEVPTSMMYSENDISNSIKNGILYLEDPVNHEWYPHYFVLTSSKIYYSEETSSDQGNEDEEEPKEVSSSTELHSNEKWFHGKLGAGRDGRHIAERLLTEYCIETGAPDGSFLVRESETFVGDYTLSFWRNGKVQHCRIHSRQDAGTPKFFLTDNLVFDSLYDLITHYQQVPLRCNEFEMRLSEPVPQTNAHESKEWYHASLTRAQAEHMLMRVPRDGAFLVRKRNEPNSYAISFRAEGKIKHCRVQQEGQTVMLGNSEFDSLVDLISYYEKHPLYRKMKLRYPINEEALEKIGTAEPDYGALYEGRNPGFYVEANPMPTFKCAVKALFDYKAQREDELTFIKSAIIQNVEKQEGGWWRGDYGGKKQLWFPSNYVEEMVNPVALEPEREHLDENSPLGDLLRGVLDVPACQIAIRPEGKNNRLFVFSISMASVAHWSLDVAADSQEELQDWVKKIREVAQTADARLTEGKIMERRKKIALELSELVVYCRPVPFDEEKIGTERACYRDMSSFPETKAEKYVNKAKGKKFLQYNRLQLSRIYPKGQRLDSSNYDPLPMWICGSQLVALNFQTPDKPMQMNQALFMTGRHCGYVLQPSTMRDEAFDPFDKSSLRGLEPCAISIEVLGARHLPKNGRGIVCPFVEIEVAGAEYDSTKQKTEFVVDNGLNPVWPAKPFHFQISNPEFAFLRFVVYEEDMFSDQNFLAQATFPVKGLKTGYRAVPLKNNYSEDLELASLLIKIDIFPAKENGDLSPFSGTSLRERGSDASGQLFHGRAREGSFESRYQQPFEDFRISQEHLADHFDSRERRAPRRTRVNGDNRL

Substance	effect of a mutation on the interaction
Ras-related C3 botulinum toxin substrate 1 (Homo sapiens) (from UniProt P63000) P106A	disrupting interaction
Ras-related C3 botulinum toxin substrate 1 (Homo sapiens) (from UniProt P63000) P109A	disrupting interaction

Source: IntAct's records for PubMed 19264842
